{"source": "paper PMC2132843", "about": "(The Journal of Cell Biology, 1998)", "binders": {"B1": {"name": "Kel1-AD (natural protein, S. cerevisiae, UniProt P38853 1-1164, looked up)", "chain": "MAGFSFAKKFTHKKHGKTPSDASISDQSREASLSTPPNEKFFTKQETPQKGRQFSQGYHSNVNKTSSPPMFARKQVSESRIQPSAVPPQQRNVSGPSTTLHKQLSKQREYTVWNRIKLQNSPFPRYRHVASAYVTDKNQIYVIGGLHDQSVYGDTWILTAFDNATRFSTTTIDISEATPPPRVGHAAVLCGNAFVVFGGDTHKVNKEGLMDDDIYLLNINSYKWTVPAPVGPRPLGRYGHKISIIATTQMKTKLYVFGGQFDDTYFNDLAVYDLSSFRRPDSHWEFLKPRTFTPPPITNFTMISYDSKLWVFGGDTLQGLVNDVFMYDPAINDWFIIDTTGEKPPPVQEHATVVYNDLMCVVGGKDEHDAYLNSVYFLNLKSRKWFKLPVFTAGIPQGRSGHSLTLLKNDKILIMGGDKFDYARVEEYDLHTSDIDMQRGTIVYTLDLARIKDLCPGVMDVPTDTPTPRNGNLDLATPVTPTSHQTKNMNVPISAAPLASAPSPAPKDFSDADRLNREVHNRNVSTEHQNQSHPVNSESHLIAEPNILTPYVPSESSQTPVMKITSNKPFDTPTIQKEPDLSETMDPTVGNQRIPSSIYGDNLTPANQIKNNSPILETLPSNEIKTPQNGNIEEIKHLPDADEKIDSTTTFDQEINGDKLGTSSMSKVEEDGNVADEDDEIGVAQMASSPSKDQFKIKHYNESSELSQNNTEIDKLSEPVDITIKKSDTAGHDSANHVIDASDEKNVSPMGDVPTDTKNEEASVPINRDATTEVVDRALFEKLRSELQSLKELTHEKALEAGAHIKELETELWQLKSQKNSGTTKEIDELDSVRLQSKCEILEADNHSLEDKVNELEELVNSKFLDIENLNEVIQFQNEKIKSLELEPNYKEKLEELQIEHENLSRENERLKNESKQHNEDIINNVANYSSQLGSLISHWKENRANSSFLESSSSLISVSDENGEKTVGEPYGDQSRHHRVVINKLTNRLDDLLERSQELTISKEKLSSEYHALKMEHSSLSQDVLVKENEIKKIQNDYKESISSMDSASKALMVSQRELEKYKSLNKKLIDELDELKFKNGVCSENFENGLRSTEESSNNVKNSNSIRENQFNIKINDLKAELFITNQERDDLKSEVLELKKRLLNLENNTKQVNEDADSDLL"}, "B2": {"name": "Kel2-DBD (natural protein, S. cerevisiae, UniProt P50090 1-882, looked up)", "chain": "MVPFKLTNKVPTDTGPSLISAQSVPRPIVFMDNRNNTRIVTPTLPPNQHRGISGASTALPWSPESKNTGKYIWNRVKLKNSPFPRYRHSSSFIVTNDNRIFVTGGLHDQSVYGDVWQIAANADGTSFTSKRIDIDQNTPPPRVGHASTICGNAYVVFGGDTHKLNKNGLLDDDLYLFNINSYKWTIPQPIGRRPLGRYGHKISIIASNPMQTKLYLFGGQVDETYFNDLVVFDLSSFRRPNSHWEFLEPVGDLPPPLTNHTMVAYDNKLWVFGGETPKTISNDTYRYDPAQSEWSKVKTTGEKPPPIQEHASVVYKHLMCVLGGKDTHNAYSNDVYFLNLLSLKWYKLPRMKEGIPQERSGHSLTLMKNEKLLIMGGDKTDYASPNIHDLQTSETDQGEGTLLYTLDLSSLNELCPGIMCESLHAGESFSNSLSGGFTPSKSTESENQEIINILTPRLPDSKVLSYNDIDEGAGSYSSALDDKAFERKSDREEKKPQSSKVDSSINKESPGTGIKVSKKNFPVLRGLTVDSEEYGSSSYKDTSCQKGIPKNLFDDLNLNLQTLRLEAQQKELETARHISQLEKEVQRLMVIKEASKDSNFQTARLKNLEIQKTFLESRINDLKNLLMVKLSQASKLCDQITIQNNGLKTCSEHVTIKRDIIDLENKCDVLKRQNEILVNNMQKITPELHTYLNESSCYLGKLLKSYPTSARPPSSEKDNQIYEKDSLNKIEKVINEMHETVRAKEKLHLETQKLNDERDSLRANLLDNNNKLDALRKLSDGSSKSMDLTKKAIHLSQSELEKYRKNNDDLQKEIDRIKTEQAEQDDKQEQRGAITHGNFDAFHRMKINNLKAELYMSKENRDSLKDELLALKKKLYTLEQKK"}}, "key": {"Kel2-DBD": {"molecular_target": "B2", "assay": "two-hybrid"}, "two-hybrid": {"molecular_target": "the molecule itself", "assay": "two-hybrid"}}, "data": [{"binder": "B1", "values": [{"measurement": "fold increase of β-galactosidase activity against Kel1-AD or Kel2-DBD alone", "setting": "Kel2-DBD", "value": "> 100", "unit": "fold"}]}, {"binder": "B2", "values": [{"measurement": "interaction relative to that of Kel1p-AD with Kel2-DBD", "setting": "two-hybrid", "value": "~10", "unit": "%"}]}]}
